Source: patent WO2013059531A1 (dated 2013)

Legend:
[1] = biological target: solubilized, full length GCGR, biotinylated (from baculovirus particles) (Homo sapiens (Human)) (UniProt P47871); test: Octet BLI kinetics, biotinylated solubilized full length GCGR on streptavidin tips, Fab in solution
[2] = biological target: T1, GCGR (glucagon receptor) on primary human hepatocytes (human, UniProt P47871 26-477); test: competition with 3 nM 125I-glucagon on primary human hepatocytes, gamma counting
T1 construct: Endogenous receptor on primary human hepatocytes (Celsis)
T1 sequence (P47871 26-477 limits assumed): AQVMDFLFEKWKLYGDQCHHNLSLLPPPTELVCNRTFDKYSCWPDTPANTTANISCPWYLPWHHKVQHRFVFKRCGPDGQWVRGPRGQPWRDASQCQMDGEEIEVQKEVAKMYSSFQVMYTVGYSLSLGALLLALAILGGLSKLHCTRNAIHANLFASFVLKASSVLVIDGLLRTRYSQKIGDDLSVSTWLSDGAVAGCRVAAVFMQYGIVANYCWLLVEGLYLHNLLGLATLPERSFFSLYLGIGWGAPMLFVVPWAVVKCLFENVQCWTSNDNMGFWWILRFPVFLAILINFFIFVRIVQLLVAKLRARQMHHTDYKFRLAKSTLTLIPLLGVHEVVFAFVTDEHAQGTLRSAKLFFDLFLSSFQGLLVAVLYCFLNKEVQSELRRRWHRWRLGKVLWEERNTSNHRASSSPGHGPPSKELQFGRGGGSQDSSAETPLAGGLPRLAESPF

solubilized, full length GCGR, biotinylated (from baculovirus particles) (Homo sapiens (Human)), sequence (P47871 26-477): as the sequence (P47871 26-477 limits assumed) above

| Binder | fold increase in affinity (Kd) over H6.23v2 [1] [fold] | binding result [2] |
| --- | --- | --- |
| H6.23v3 Fab fragment (Fab, V domains shown) VH: EVQLVESGGGLVQPGGSLRLSCAASGFNIYYNYIHWVRQAPGKGLEWVAEFSPYSGSTYYADSVKGRFTISADTSKNTAYLQMNSLRAEDTAVYYCARSAAIVDWYDYFKGFDYWGQGTLVTVSS VL: DIQMTQSPSSLSASVGDRVTITCRASQSVSSAVAWYQQKPGKAPKLLIYSASSLYSGVPSRFSGSRSGTDFTLTISSLQPEDFATYYCQQYGSYLYTFGQGTKVEIK | 3 |  |
| anti-GCGR antibody H6.23v3 (antibody, V domains shown) VH: EVQLVESGGGLVQPGGSLRLSCAASGFNIYYNYIHWVRQAPGKGLEWVAEFSPYSGSTYYADSVKGRFTISADTSKNTAYLQMNSLRAEDTAVYYCARSAAIVDWYDYFKGFDYWGQGTLVTVSS VL: DIQMTQSPSSLSASVGDRVTITCRASQSVSSAVAWYQQKPGKAPKLLIYSASSLYSGVPSRFSGSRSGTDFTLTISSLQPEDFATYYCQQYGSYLYTFGQGTKVEIK |  | binds |
